Consider 1 substance from patent US20240116999A1, “CONFORMATIONALLY CONSTRAINED GLUCAGON ANALOGUES AND THEIR USE IN GLUCAGON-SINGLE CHAIN INSULIN FUSION PROTEINS” (THE TRUSTEES OF INDIANA UNIVERSITY, priority 2021, published 2024).

In this assay the target is glucagon receptor (GCGR). In words: cell-based or functional assay.

As for dasiglucagon (Zealand Pharma) (peptide), the EC50, cell-based cyclic AMP (cAMP) activity assay is 1.04 nM.
